The text below walks through data of patent publication US20230272088A1 (SYNTHEKINE, published 2023).

The target in assay [1] is T1, extracellular domain of hIFNGR1 (human, UniProt P15260 18-245, conjugated to Alexa647 (site not stated)).
T1 construct: UniProt P15260 residues 18-245; also called hIFNGR1-ECD; human IFNGR1 ECD
T1 sequence: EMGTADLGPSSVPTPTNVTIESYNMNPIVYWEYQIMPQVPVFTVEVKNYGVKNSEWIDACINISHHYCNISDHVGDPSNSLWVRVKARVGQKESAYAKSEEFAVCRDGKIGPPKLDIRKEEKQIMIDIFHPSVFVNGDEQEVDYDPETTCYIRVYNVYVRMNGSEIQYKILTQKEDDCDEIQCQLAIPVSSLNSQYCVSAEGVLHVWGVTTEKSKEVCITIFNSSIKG
As to the kind of experiment: flow cytometry. In general terms: Flow cytometry measures light scatter and fluorescence of single cells or particles in a stream.

In assay [2] the target is T2, extracellular domain of mIFNGR1 (mouse, UniProt P15261 26-254, conjugated to Alexa647 (site not stated)).
T2 construct: Origin and tags of the murine antigen are not described; UniProt P15261 residues 26-254; also called mIFNGR1-ECD; murine IFNGR1 ECD
T2 sequence: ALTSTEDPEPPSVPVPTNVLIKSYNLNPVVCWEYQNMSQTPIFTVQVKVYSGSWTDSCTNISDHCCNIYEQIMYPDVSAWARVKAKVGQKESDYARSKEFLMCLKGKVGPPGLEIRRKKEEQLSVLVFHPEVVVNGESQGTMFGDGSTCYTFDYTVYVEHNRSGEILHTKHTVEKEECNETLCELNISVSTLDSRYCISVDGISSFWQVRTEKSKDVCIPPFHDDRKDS
As to the kind of experiment: flow cytometry.

The target in assay [3] is T1, extracellular domain of hIFNGR1. The experiment in a line: flow cytometry, yeast-displayed VHH, 100 nM Alexa647-conjugated antigen. The procedure: Binding of individual VHH to human and murine antigen was tested by flow cytometry. Briefly, 2E5 yeast cells expressing a single sdAb clone were added to each well of a 96 well plate. The first plate was incubated with 100 nM of human antigen conjugated to Alexa647 whereas the second plate was incubated with 100 nM of murine antigen conjugated to Alexa647. Yeast cells were washed 3 times with PBS containing 1% bovine serum albumin. Yeast cells were analyzed using flow cytometry and clones showing a mean fluorescence intensity of greater than 1000 were considered as binding molecules. Specificity of sdAbs was confirmed by incubating yeast cells with a irrelevant protein conjugated to Alexa647. Positive clones were sequenced, and sequences analyzed to identify unique clonotypes.

B1: DR908 (VHH)
VHH: EVQLVESGGGLVQAGGSLRVTCAASGRTFTSLAMGWFRQAPGKEREFVAAISRSGGSTDYADSVKGRFFISRDNAKSTLYLQMSSLKPEDTAVYYCAARDYSTLQYYNEYEYSDWGQGTQVTVSS
notes: also called anti-IFNGR1 sdAb VHH DR908
With B1, the binding result in assay [1] and in assay [2] was “binds” throughout.

B2: DR907 (VHH)
VHH: EVQLVESGGGLVQAGGSLRLSCAASGRTFSNYAMGWFRQAPGNEREFVAAINWNIGSTYYADSVKGRFTISRDNAKNTVYLQMNSLKPEDTAVYYCGAVWPTGRLRVDSEYDYWGQGTQVTVSS
notes: also called anti-IFNGR1 sdAb VHH DR907
For B2, the binding result in assay [2] and in assay [3] was “binds” throughout.
